# Measurements published in publication PMC8225110, “The Divergent Key Residues of Two Agrobacterium fabrum (tumefaciens) CheY Paralogs Play a Key Role in Distinguishing Their Functions” (Microorganisms, 2021).
# B1: CheY2-6×his fusion protein, phosphorylated with acetyl phosphate (natural protein, Agrobacterium fabrum C58, UniProt Q7D1A5 1-129, looked up)
# chain: MSLAEKIKVLIVDDQVTSRLLLSDALTQLGFKQITSAGDGEQGLKIMEQQPHHLVISDFNMPKMDGLGFLHAVRANPTTKKAAFIILTAQGDRALVQKAAQLGANNVLAKPFTIDKMRAAIEAVFGSLK
# modifications: phosphorylated by acetyl phosphate (residue not given)
# notes: Chemotaxis response regulator CheY2 (atu0520) of Agrobacterium fabrum C58; Same construct as m11; the extent of phosphorylation was not measured; also called CheY2-P; source: E. coli BL21 (DE3), crude extract, with acetyl phosphate (phosphorylating conditions); not shown: His6, C-terminal, kept
# Target: T1, GST-FliM fusion protein (Agrobacterium fabrum C58, UniProt Q44457 1-321)
# T1 construct: Flagellar motor switch protein FliM (atu0561) of Agrobacterium fabrum C58; Cloned in pGEX-4T-1; not shown: GST, N-terminal, kept
# T1 sequence (looked up): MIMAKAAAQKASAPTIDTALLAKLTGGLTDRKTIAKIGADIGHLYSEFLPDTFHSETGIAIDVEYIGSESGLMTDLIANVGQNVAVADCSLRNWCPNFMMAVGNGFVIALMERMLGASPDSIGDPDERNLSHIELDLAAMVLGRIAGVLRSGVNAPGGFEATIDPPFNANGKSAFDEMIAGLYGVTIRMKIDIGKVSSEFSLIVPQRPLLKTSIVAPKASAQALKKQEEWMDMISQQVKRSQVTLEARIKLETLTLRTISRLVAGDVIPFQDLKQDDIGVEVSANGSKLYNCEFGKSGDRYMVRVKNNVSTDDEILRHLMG
# Experiment: pull-down; GST-FliM on glutathione-Sepharose 4B beads, crude extract of CheY-6×his in PBS with MgCl2 and acetyl phosphate (phosphorylating conditions), 4 °C, 1 h; Western blot with anti-6×his antibody
# Settings: one partner purified
binder,measurement,value
B1,"fold band intensity pulled down, against CheY1-6×his",~5 fold
